Like-named read-outs stand apart in the source and are kept apart here.
Columns and labels:
Experiment in all cases: cryo-EM structure
[1] = target: Human Slo1 (hSlo1), BK channel α subunit, residues 1-1056 (human)
[2] = target: Human Slo1 (hSlo1), BK channel α subunit, residues 1-1056 (human); remark: listed apart in the source
[3] = target: Human Slo1 (hSlo1), BK channel α subunit, residues 1-1056 (human); remark: listed apart in the source
[4] = target: Human Slo1 (hSlo1), BK channel α subunit, residues 1-1056 (human); remark: listed apart in the source

stoichiometry N [1]: 4 | stoichiometry N [2]: 4 | stoichiometry N [3]: 4 | stoichiometry N [4]: 4
Substance: Human Slo1 (hSlo1), BK channel α subunit, residues 1-1056 (natural protein)

From PMC11840039
